Bridge positions count the residues as written; N and C are the ends. Square brackets hold non-standard residues; d marks the D form. 1Nal = N[C@@H](Cc1cccc2ccccc12)C(=O)O; 2Nal = N[C@@H](Cc1ccc2ccccc2c1)C(=O)O; d1Nal = N[C@H](Cc1cccc2ccccc12)C(=O)O; d2Nal = N[C@H](Cc1ccc2ccccc2c1)C(=O)O; NMeR = CN[C@@H](CCCNC(=N)N)C(=O)O; hPhe = N[C@@H](CCc1ccccc1)C(=O)O; Aic = NC1(C(=O)O)Cc2ccccc2C1; Pen = CC(C)(S)[C@H](N)C(=O)O; dNMeK = CN[C@H](CCCCN)C(=O)O
What was measured:
[1] = molecular target: rh integrin α4β7 (R&D Systems #5397-A30) (human) (UniProt P13612); experiment: α4β7-MAdCAM competition ELISA
[2] = molecular target: α4β7 integrin on human cells (human, UniProt P13612 34-1032; P26010 20-798); experiment: cell-based or functional assay

| Binder | IC50 [1] | α4β7 cell (Hu) IC50 [2] |
| --- | --- | --- |
| Ac-[Pen][NMeR]SDTL[Pen][2Nal]E[dNMeK]-NH2 (disulfide 1-7; SMILES CC(=O)N[C@@H]1C(=O)N(C)[C@@H](CCCNC(=N)N)C(=O)N[C@@H](CO)C(=O)N[C@@H](CC(=O)O)C(=O)N[C@@H]([C@@H](C)O)C(=O)N[C@@H](CC(C)C)C(=O)N[C@H](C(=O)N[C@@H](Cc2ccc3ccccc3c2)C(=O)N[C@@H](CCC(=O)O)C(=O)N(C)[C@H](CCCCN)C(N)=O)C(C)(C)SSC1(C)C) [SEQ ID NO 15] | < 10 nM | – |
| Ac-[Pen][NMeR]SDTL[Pen][1Nal][dE][dK]-NH2 (disulfide 1-7 (inferred)) [SEQ ID NO 8] | > 25 nM | – |
| Ac-[Pen][NMeR]SDTL[Pen][2Nal][hPhe][dK]-NH2 (disulfide 1-7; SMILES CC(=O)N[C@@H]1C(=O)N(C)[C@@H](CCCNC(=N)N)C(=O)N[C@@H](CO)C(=O)N[C@@H](CC(=O)O)C(=O)N[C@@H]([C@@H](C)O)C(=O)N[C@@H](CC(C)C)C(=O)N[C@H](C(=O)N[C@@H](Cc2ccc3ccccc3c2)C(=O)N[C@@H](CCc2ccccc2)C(=O)N[C@H](CCCCN)C(N)=O)C(C)(C)SSC1(C)C) [SEQ ID NO 50] | > 10 nM | – |
| Ac-[Pen][NMeR]SDTL[Pen]W[Aic][dK]-NH2 (disulfide 1-7; SMILES CC(=O)N[C@@H]1C(=O)N(C)[C@@H](CCCNC(=N)N)C(=O)N[C@@H](CO)C(=O)N[C@@H](CC(=O)O)C(=O)N[C@@H]([C@@H](C)O)C(=O)N[C@@H](CC(C)C)C(=O)N[C@H](C(=O)N[C@@H](Cc2c[nH]c3ccccc23)C(=O)NC2(C(=O)N[C@H](CCCCN)C(N)=O)Cc3ccccc3C2)C(C)(C)SSC1(C)C) [SEQ ID NO 51] | > 25 nM | – |
| Ac-[Pen][NMeR]SDTL[Pen][d1Nal]E[dK]-NH2 (disulfide 1-7; SMILES CC(=O)N[C@@H]1C(=O)N(C)[C@@H](CCCNC(=N)N)C(=O)N[C@@H](CO)C(=O)N[C@@H](CC(=O)O)C(=O)N[C@@H]([C@@H](C)O)C(=O)N[C@@H](CC(C)C)C(=O)N[C@H](C(=O)N[C@H](Cc2cccc3ccccc23)C(=O)N[C@@H](CCC(=O)O)C(=O)N[C@H](CCCCN)C(N)=O)C(C)(C)SSC1(C)C) [SEQ ID NO 10] | > 10 nM | – |
| Ac-[Pen][NMeR]SDTL[Pen][2Nal][dK]-NH2 (disulfide 1-7; SMILES CC(=O)N[C@@H]1C(=O)N(C)[C@@H](CCCNC(=N)N)C(=O)N[C@@H](CO)C(=O)N[C@@H](CC(=O)O)C(=O)N[C@@H]([C@@H](C)O)C(=O)N[C@@H](CC(C)C)C(=O)N[C@H](C(=O)N[C@@H](Cc2ccc3ccccc3c2)C(=O)N[C@H](CCCCN)C(N)=O)C(C)(C)SSC1(C)C) [SEQ ID NO 88] | > 10 nM | – |
| Ac-[Pen][NMeR]SDTL[Pen][d2Nal]E[dK]-NH2 (disulfide 1-7; SMILES CC(=O)N[C@@H]1C(=O)N(C)[C@@H](CCCNC(=N)N)C(=O)N[C@@H](CO)C(=O)N[C@@H](CC(=O)O)C(=O)N[C@@H]([C@@H](C)O)C(=O)N[C@@H](CC(C)C)C(=O)N[C@H](C(=O)N[C@H](Cc2ccc3ccccc3c2)C(=O)N[C@@H](CCC(=O)O)C(=O)N[C@H](CCCCN)C(N)=O)C(C)(C)SSC1(C)C) [SEQ ID NO 11] | > 25 nM | – |
| Ac-[Pen][NMeR]SDTL[Pen][1Nal][dR][dK]-NH2 (disulfide 1-7 (inferred); also: homodimer via DIG) [SEQ ID NO 114] | – | > 100 nM |
